# Data reported in the supplement of paper PMC10724198.
# ± gives the standard deviation of the averaged measurements.
# Test system: Saccharomyces cerevisiae
# Test: protein stability index of tFT-peptide fusion (C-terminal peptide) (PSI (0-1 scale)); higher = more stable (slower turnover)
# Conditions: temperature: 30 C
# Description: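 MPS profiling in S. cerevisiae of the yeast C-terminome library: the last 12 aa of each annotated ORF are fused to the C-terminus of a sfGFP-mCherry timer, after a GGGS linker. Cells are FACS-sorted into 8 mCherry/sfGFP bins and deep-sequenced. PSI runs from 0 (unstable) to 1 (stable); wild type and das1Δ backgrounds, two technical replicates each.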
# [1] = genetic background: das1 deletion
Sequence,protein stability index [1],protein stability index (genetic background: wild type)
QKYQVYKNFETL [UTR4 C-terminal 12 aa],0.7 ± 0.015,0.688 ± 0.0077
VSNLEVLEELFP [DPI35 C-terminal 12 aa],0.722 ± 0.015,0.7123 ± 0.0038
INKTLAWMDEGL [ERG26 C-terminal 12 aa],0.694 ± 0.013,0.728 ± 0.055
AKLFKEIFAYKV [COQ8 C-terminal 12 aa],0.664 ± 0.0097,0.66 ± 0.019
ATICSVAFVKQN [EFM4 C-terminal 12 aa],0.6241 ± 0.0034,0.224 ± 0.011
GYSPKPISKKEE [ALE1 C-terminal 12 aa],0.719 ± 0.011,0.648 ± 0.012
LARLKTCVLLIN [YML122C C-terminal 12 aa],0.544 ± 0.017,0.154 ± 0.0076
SPGEYEIGDMEN [YDR061W C-terminal 12 aa],0.675 ± 0.016,0.681 ± 0.048
LIVSFFYKRNAL [IQG1 C-terminal 12 aa],0.667 ± 0.018,0.584 ± 0.015
NTSGQKPNEYNY [APA1 C-terminal 12 aa],0.7049 ± 0.0049,0.698 ± 0.018
TPTCQDPSLTEV [YJR038C C-terminal 12 aa],0.7253 ± 0.0048,0.6895 ± 0.0068
GKYNIKVKLNFI [VAR1 C-terminal 12 aa],0.704 ± 0.027,0.69 ± 0.096
EEWSSKFGSNGS [YTA6 C-terminal 12 aa],0.7431 ± 0.0031,0.725 ± 0.014
NYRLEEQDVLTW [LYS14 C-terminal 12 aa],0.721 ± 0.037,0.693 ± 0.058
GVFSKSSAELRF [YDL016C C-terminal 12 aa],0.715 ± 0.013,0.706 ± 0.023
EDLDSDLFSEVE [SSF1 C-terminal 12 aa],0.682 ± 0.02,0.732 ± 0.027
IARPFELKYFGR [FCY21 C-terminal 12 aa],0.7199 ± 0.006,0.718 ± 0.001

Sequence,protein stability index [1],protein stability index (genetic background: wild type)
ELDDILGSDSDF [MPH1 C-terminal 12 aa],0.711 ± 0.02,0.6837 ± 0.0036
TSLGLTRTTIIP [CDC4 C-terminal 12 aa],0.685 ± 0.021,0.6778 ± 0.0043
KTFWDKFWNVVA [CAN1 C-terminal 12 aa],0.735 ± 0.03,0.193 ± 0.014
KLDIPVSFLLAA [YBL053W C-terminal 12 aa],0.443 ± 0.0065,0.467 ± 0.044
QINDLEIYRKRL [SNT309 C-terminal 12 aa],0.6847 ± 0.006,0.68 ± 0.029
LSIFGFDMFNRK [YMR1 C-terminal 12 aa],0.706 ± 0.046,0.703 ± 0.028
DEFWTDLFMNDI [WAR1 C-terminal 12 aa],0.77 ± 0.0079,0.757 ± 0.036
KAKSRREGTTRT [STU2 C-terminal 12 aa],0.7121 ± 0.0033,0.694 ± 0.013
ESKDDDDDDDWE [DOS2 C-terminal 12 aa],0.709 ± 0.038,0.648 ± 0.0095
LEPQESKPTIDH [AIM34 C-terminal 12 aa],0.697 ± 0.018,0.6899 ± 0.005
DLEMEVIAVEKN [MMF1 C-terminal 12 aa],0.681 ± 0.0085,0.674 ± 0.034
PFPLPSTERVIF [ADY2 C-terminal 12 aa],0.723 ± 0.02,0.73 ± 0.023
LGKKKPPSRLFR [CDC25 C-terminal 12 aa],0.707 ± 0.019,0.715 ± 0.035
PLWNQRRDDLFH [NIT2 C-terminal 12 aa],0.74 ± 0.042,0.744 ± 0.055
IKGKFYVKILGN [YGR115C C-terminal 12 aa],0.635 ± 0.036,0.648 ± 0.012
VTEAESTASAST [BUD20 C-terminal 12 aa],0.7 ± 0.013,0.6926 ± 0.006
IVCGDGSIHWFQ [FAU1 C-terminal 12 aa],0.735 ± 0.0094,0.769 ± 0.041
